Laboratory results taken from paper PMC12394453 (Signal Transduction and Targeted Therapy, 2025).

B1: 14F8 Fab (Fab, V domains shown)
VH: QVQLKESGPGLVAPSQSLSITCTVSGFSLTSYDISWIRQPPGKGLEWLGVIWTGGVTNYNSAFLSRLSISKDNSKSQVFLKMNSLQTDDTAIYYCVREGDWFFDVWGAGTTVTVSS
VL: DVLMTQTPLSLPVSLGDQASISCRSSQSIVHSNGNTYLEWYLQKPGQSPQLLIYKVSNRFSGVPDRFSGSGSGTDFTLKINRVEAEDLGLYYCFQASHVPYTFGGGTKLEIK
notes: also called 14F8 Fab fragment
B2: chimeric antibody 14F8 (variable regions of mouse m14F8 on a human IgG1 constant region backbone) (antibody, V domains shown)
VH: B1 VH
VL: B1 VL
notes: also called Humanized 14F8; m14F8 (mouse parent)

How the values were obtained:
Settings in all cases: both partners purified
[1] = biological target: NiV-G head domain (crystallisation construct, deglycosylated) (Nipah virus, NP_112027 / Q9IH62 …); assay: crystal structure
[2] = biological target: deglycosylated NiV-G (N-linked glycans removed with PNGase F) (Nipah virus, Bangladesh isolate …, UniProt Q4VCP5, strain, N-linked glycans removed with PNGase F); assay: SPR; Biacore T200; antibody (0.5 μg/mL in HBS-EP+) […]; association 120 s, dissociation 900 s
[3] = biological target: T1, HeV-G (wild-type Hendra virus attachment glycoprotein G, soluble recombinant) (Hendra virus, UniProt O89343); assay: SPR
T1 construct: source: Expi-293F, purified (StrepTrap HP)

Binder	binding result [1]	binding result [2]	binding result [3]
B1	binds		
B2		binds	no binding (tested: 100 nM)
